Kd data for one molecule are collected here from patent publication US20190169246A1 (UNIVERSITY OF SOUTH FLORIDA, published 2019).

Broadly, the Kd is the free concentration of one partner at which half of the binding sites on the other are occupied at equilibrium, for simple one-to-one binding. A low value points to tighter binding.

For the experiment, the target named is APC.
Chain of APC (Q14114 33-826): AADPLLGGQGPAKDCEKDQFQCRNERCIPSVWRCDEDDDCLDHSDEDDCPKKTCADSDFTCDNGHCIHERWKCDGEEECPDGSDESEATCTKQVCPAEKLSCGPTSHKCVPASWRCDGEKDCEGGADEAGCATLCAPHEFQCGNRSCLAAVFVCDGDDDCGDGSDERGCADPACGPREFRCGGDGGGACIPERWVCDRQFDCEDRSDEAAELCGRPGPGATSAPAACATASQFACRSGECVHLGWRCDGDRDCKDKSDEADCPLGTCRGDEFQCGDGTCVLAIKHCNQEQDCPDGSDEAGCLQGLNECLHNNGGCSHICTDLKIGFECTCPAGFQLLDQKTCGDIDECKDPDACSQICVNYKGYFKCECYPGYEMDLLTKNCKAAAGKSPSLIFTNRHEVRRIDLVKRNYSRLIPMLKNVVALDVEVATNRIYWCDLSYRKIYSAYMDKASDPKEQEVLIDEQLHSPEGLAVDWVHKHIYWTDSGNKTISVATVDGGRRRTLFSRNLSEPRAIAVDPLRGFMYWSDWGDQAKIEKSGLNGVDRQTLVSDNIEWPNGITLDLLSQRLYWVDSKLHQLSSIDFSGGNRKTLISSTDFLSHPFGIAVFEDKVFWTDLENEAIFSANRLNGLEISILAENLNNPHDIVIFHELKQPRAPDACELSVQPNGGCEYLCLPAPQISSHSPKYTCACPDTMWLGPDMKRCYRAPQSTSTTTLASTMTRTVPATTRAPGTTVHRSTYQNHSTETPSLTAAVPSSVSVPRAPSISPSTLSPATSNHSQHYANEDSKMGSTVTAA

B1: ApoER2 (as bound by APC) (receptor)
chain: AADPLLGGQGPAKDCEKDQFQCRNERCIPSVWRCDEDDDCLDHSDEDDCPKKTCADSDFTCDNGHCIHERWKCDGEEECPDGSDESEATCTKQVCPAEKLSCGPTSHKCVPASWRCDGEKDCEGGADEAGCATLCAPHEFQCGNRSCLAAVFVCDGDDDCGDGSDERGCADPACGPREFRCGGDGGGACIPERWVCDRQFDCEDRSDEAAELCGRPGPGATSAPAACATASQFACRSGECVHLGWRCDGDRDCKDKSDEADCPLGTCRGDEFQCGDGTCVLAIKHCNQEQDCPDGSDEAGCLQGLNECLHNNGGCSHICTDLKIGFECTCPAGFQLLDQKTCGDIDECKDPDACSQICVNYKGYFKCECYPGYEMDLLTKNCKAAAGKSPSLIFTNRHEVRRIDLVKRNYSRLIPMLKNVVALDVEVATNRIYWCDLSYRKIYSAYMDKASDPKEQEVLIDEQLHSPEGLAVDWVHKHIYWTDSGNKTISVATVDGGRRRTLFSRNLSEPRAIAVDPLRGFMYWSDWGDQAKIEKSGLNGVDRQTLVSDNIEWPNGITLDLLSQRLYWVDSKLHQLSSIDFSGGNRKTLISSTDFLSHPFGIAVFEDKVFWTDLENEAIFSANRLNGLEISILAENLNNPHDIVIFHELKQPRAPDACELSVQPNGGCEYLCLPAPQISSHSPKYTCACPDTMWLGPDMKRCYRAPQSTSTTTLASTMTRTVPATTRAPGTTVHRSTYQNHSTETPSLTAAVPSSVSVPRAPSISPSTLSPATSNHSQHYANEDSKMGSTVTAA
B1 came in with a Kd of 0.03 µM.
